Results taken from publication PMC2857095.

Substrate: Nc1ncnc2c1ncn2[C@@H]1O[C@H](COP(=O)(O)OP(=O)(O)OP(=O)(O)O)[C@@H](O)[C@H]1O
Assay: purified protein
Conditions: no DNA, 100 mM MgCl2

B1: MutS (Escherichia coli K-12) (protein)
chain: MSAIENFDAHTPMMQQYLRLKAQHPEILLFYRMGDFYELFYDDAKRASQLLDISLTKRGASAGEPIPMAGIPYHAVENYLAKLVNQGESVAICEQIGDPATSKGPVERKVVRIVTPGTISDEALLQERQDNLLAAIWQDSKGFGYATLDISSGRFRLSEPADRETMAAELQRTNPAELLYAEDFAEMSLIEGRRGLRRRPLWEFEIDTARQQLNLQFGTRDLVGFGVENAPRGLCAAGCLLQYAKDTQRTTLPHIRSITMEREQDSIIMDAATRRNLEITQNLAGGAENTLASVLDCTVTPMGSRMLKRWLHMPVRDTRVLLERQQTIGALQDFTAGLQPVLRQVGDLERILARLALRTARPRDLARMRHAFQQLPELRAQLETVDSAPVQALREKMGEFAELRDLLERAIIDTPPVLVRDGGVIASGYNEELDEWRALADGATDYLERLEVRERERTGLDTLKVGFNAVHGYYIQISRGQSHLAPINYMRRQTLKNAERYIIPELKEYEDKVLTSKGKALALEKQLYEELFDLLLPHLEALQQSASALAELDVLVNLAERAYTLNYTCPTFIDKPGIRITEGRHPVVEQVLNEPFIANPLNLSPQRRMLIITGPNMGGKSTYMRQTALIALMAYIGSYVPAQKVEIGPIDRIFTRVGAADDLASGRSTFMVEMTETANILHNATEYSLVLMDEIGRGTSTYDGLSLAWACAENLANKIKALTLFATHYFELTQLPEKMEGVANVHLDALEHGDTIAFMHSVQDGAASKSYGLAVAALAGVPKEVIKRARQKLRELESISPNAAATQVDGTQMSLLSVPEETSPAVEALENLDPDSLTPRQALEWIYRLKSLV
Low affinity site
  Km: 6.8 ± 0.6 µM
  kcat: 0.0317 ± 0.00067 s⁻¹

B2: MutS (Escherichia coli K-12; D693N) (protein)
chain: MSAIENFDAHTPMMQQYLRLKAQHPEILLFYRMGDFYELFYDDAKRASQLLDISLTKRGASAGEPIPMAGIPYHAVENYLAKLVNQGESVAICEQIGDPATSKGPVERKVVRIVTPGTISDEALLQERQDNLLAAIWQDSKGFGYATLDISSGRFRLSEPADRETMAAELQRTNPAELLYAEDFAEMSLIEGRRGLRRRPLWEFEIDTARQQLNLQFGTRDLVGFGVENAPRGLCAAGCLLQYAKDTQRTTLPHIRSITMEREQDSIIMDAATRRNLEITQNLAGGAENTLASVLDCTVTPMGSRMLKRWLHMPVRDTRVLLERQQTIGALQDFTAGLQPVLRQVGDLERILARLALRTARPRDLARMRHAFQQLPELRAQLETVDSAPVQALREKMGEFAELRDLLERAIIDTPPVLVRDGGVIASGYNEELDEWRALADGATDYLERLEVRERERTGLDTLKVGFNAVHGYYIQISRGQSHLAPINYMRRQTLKNAERYIIPELKEYEDKVLTSKGKALALEKQLYEELFDLLLPHLEALQQSASALAELDVLVNLAERAYTLNYTCPTFIDKPGIRITEGRHPVVEQVLNEPFIANPLNLSPQRRMLIITGPNMGGKSTYMRQTALIALMAYIGSYVPAQKVEIGPIDRIFTRVGAADDLASGRSTFMVEMTETANILHNATEYSLVLMNEIGRGTSTYDGLSLAWACAENLANKIKALTLFATHYFELTQLPEKMEGVANVHLDALEHGDTIAFMHSVQDGAASKSYGLAVAALAGVPKEVIKRARQKLRELESISPNAAATQVDGTQMSLLSVPEETSPAVEALENLDPDSLTPRQALEWIYRLKSLV
Kcat unit not printed beside value
  Km: 34 µM
